Measured values published in patent US20180207202A1, “METHODS FOR MOBILIZING HEMATOPOIETIC STEM CELLS” (Ohio State Innovation Foundation, priority 2013, published 2018).
Read-outs that look alike come from different tables or passages of the source.

B1: G-CSF: Granulocyte colony stimulating factor (Amgen), routinely used to mobilize PBSC (protein, UniProt P09919 31-207, looked up)
Granulocyte …: TPLGPASSLPQSFLLKCLEQVRKIQGDGAALQEKLVSECATYKLCHPEELVLLGHSLGIPWAPLSSCPSQALQLAGCLSQLHSGLFLYQGLLQALEGISPELGPTLDTLQLDVADFATTIWQQMEELGMAPALQPTQGAMPAFASAFQRRAGGVLVASHLQSFLEVSYRVLRHLAQP
B2: FLT3L: recombinant human FLT3L (Celldex Therapeutics or Miltenyi Biotec), stem cell-specific growth factor (protein, UniProt P49771 27-235, looked up)
Fms-related tyrosine kinase 3 …: TQDCSFQHSPISSDFAVKIRELSDYLLQDYPVTVASNLQDEELCGGLWRLVLAQRWMERLKTVAGSKMQGLLERVNTEIHFVTKCAFQPPPSCLRFVQTNISRLLQETSEQLVALKPWITRQNFSRCLELQCQPDSSTLPPPWSPRPLEATAPTAPQPPLLLLLLLPVGLLLLAAAWCLHWQRTRRRTPRPGEQVPPVPSPQDLLLVEH

Legend:
[1] = system: CD8+ T cells; test: CD8+ T cells in mobilized peripheral blood, flow cytometry (Example 3); format: in vivo, mice (WT B6D2F1/J); details: group of three mice
Method: It is known that donor CD8^+ T cells are mainly responsible for GVHD in HSCT, and G-CSF is considered a toxic mobilizer as it also induces GVHD.
In FIG. 3, WT B6D2F1/J mice were treated with FLT3L or G-CSF for 10 or 5 days, respectively, followed by a one-hour Plerixafor treatment. PBS served as a control. Peripheral blood cells were assayed by flow cytometry to examine percentages of CD8^+ T cells ([…]) in total white blood cells. Data were summarized from a group of three mice.

[2] = system: HSCs (Lin-Sca-1+c-Kit+, LSK cells); test: LSK cell mobilization into peripheral blood, flow cytometry (Example 6); format: in vivo, C57BL/6 mice
Method: (§1) C57BL/6 mice were injected intraperitoneally (i.p.) either (i) with recombinant human FLT3L (Celldex Therapeutics or Miltenyi Biotec) ([…]) for 10 consecutive days or (ii) with G-CSF (Amgen) ([…]) for 5 consecutive days. The capacity of human FLT3L to bind murine FLT3L receptors and Plerixafor to block murine Cxcr4 receptor was previously reported. (See, e.g., Lyman et al., 1994; Brawel et al., 1996; Gerlach et al., 2001; Broxmeyer et al., 2005). Twelve hours after the last dose of either FLT3L or G-CSF, the mice were injected i.p. with either PBS or Plerixafor (AMD3100, Sigma) (5 mg/kg). The mice were euthanized one hour later.
As described by Ferraro et al., 2011, peripheral blood was collected retro-orbitally while the mice were under deep anesthesia. Briefly, the mice were […] by an i.p. injection with 100 μL of a mixture of ketamine (54.3 mg/mL) and xylazine (9.1 mg/mL). Blood was collected from the retro-orbital venous plexus through a microcapillary heparinized tube. The mice were then euthanized while still deeply anesthetized. RBCs were depleted by RBC lysis buffer. The remaining cells were subjected to flow cytometric analysis or transplantation.
The mAbs reactive with murine cell antigens were purchased from BD Biosciences or eBioscience. Cell preparation and analysis were performed as described by Yu et al., 2010. […]

[3] = system: peripheral blood stem cells; details: cited from earlier work
[4] = system: mice syngeneically infused; details: cited from earlier work
[5] = system: NK cells, Tregs, DCs, monocytes, neutrophils; test: Immune cell subsets in mobilized peripheral blood, flow cytometry (Example 6); format: in vivo, C57BL/6 mice
Method: as §1
The mAbs reactive with murine cell antigens were purchased from BD Biosciences or eBioscience. Cell preparation and analysis were performed as described by Yu et al., 2010. The immune subsets were gated as CD3^−NK1.1^+ for natural killer (NK) cells, CD3^+CD25^+Foxp3^+ for regulatory T cells (Tregs), B220^−CD11c^+CD11b^− for conventional dendritic cells (cDCs), and CD11b^−CD11c^lowPDCA1^+SiglecH^+ for plasmacytoid DCs (pDCs).
In FIG. 12, the constitution of immune cell subsets in mobilized peripheral blood was determined by flow cytometric analysis with corresponding antibodies (B cell: CD3^−CD19^+, T cell: CD3^+NK1.1^−; NK cell: CD3^−NK1.1^+; Neutrophil: Gr1^highCD11b^+; Monocyte: Gr1^medCD11b^+; DC: CD11c^+). […]

[6] = system: lethally irradiated C57BL/6 mice; test: Syngeneic transplantation of mobilized grafts into lethally irradiated mice (Example 6); format: in vivo; details: 2×10^5 mobilized cells per recipient
Method: For syngeneic transplantation, C57BL/6 mice were subjected to 9 Gy of irradiation delivered in 2 fractions separated by 4 hours using RS 2000 X-Ray Q2 Irradiator (Rad Source Technologies, Suwanee GP). Four hours later, each mouse was transplanted via the tail vein with 2×10^5 mobilized RBC-depleted peripheral blood cells from C57BL/6 mice. […] The lethally irradiated mice were housed in a sterile environment and baytril antibiotic was provided in the drinking water to prevent infection-caused mortality. After transplantation, mice were monitored daily and the phenotypes of the mice were recorded.
(§2) Irradiated mice without any cell infusion (IR Ctl) served as a control group. A total of 2×10^5 (A) or 8×10^5 (B) peripheral blood cells were transplanted for each recipient. Each group contains 5 to 8 mice. A log-rank test was used to compare survival curves.

[7] = system: lethally irradiated syngeneic mouse model; test: Survival of lethally irradiated syngeneic mice given mobilized peripheral blood cells (Example 5); format: in vivo, mice (C57BL/6); details: 0.2 million mobilized PB cells per lethally irradiated recipient
Method: Peripheral blood (PB) mobilized by FLT3L and Plerixafor prolongs mouse survival in a lethally irradiated syngeneic mouse model and a fully mismatched acute GVHD model. To test whether the mobilized stem cells and other immune cells can improve transplantation, mobilized cells were administered to lethally irradiated (IR) syngeneic mice at the dose of 0.2 million PB cells for each recipient mouse.

[8] = system: Lin-c-kit+Sca-1+ HSCs and Lin-c-kit+Sca-1- progenitor cells; test: Mobilization of HSCs and committed progenitors into peripheral blood, flow cytometry (Example 1); format: in vivo, mice (WT B6D2F1/J)
Text: Since HSCs are important for long-term reconstitution and progenitor cells are critical for short-term rapid reconstitution in transplantation, whether a combination of FLT3L and Plerixafor can mobilize both types of cells was investigated. In mice, Lin^−c-kit^+Sca-1^+ cells are enriched HSCs and Lin^−c-kit^+Sca-1^− cells are more committed progenitor cells. […] Furthermore, the mobilization effect of the FLT3L and Plerixafor combination was much stronger than the G-CSF and Plerixafor combination, the strongest mobilizer currently used clinically (5.9% vs. 2%, 10.3% vs. 1%, n=3, p<0.01, respectively). The flow results were validated by another method, stem cell colony formation assay.
In FIG. 1, WT B6D2F1/J mice were treated with FLT3L or G-CSF for 10 or 5 days, respectively, followed by a one-hour Plerixafor treatment. PBS served as a control. On the last day of the treatment, mice were sacrificed and peripheral blood cells were subjected to flow cytometry to determine percentages (among total WBC) of stem-cell enriched (Lin^−CD117^+Sca-1^+) (FIG. 1A) or more committed precursor cells ([…]) (FIG. 1B).

[9] = system: fully mismatched acute GVHD model; test: Survival in fully mismatched acute GVHD model given mobilized peripheral blood cells (Example 5); format: in vivo, mice (C57BL/6 to BALB/c); details: 0.8 million mobilized cells per mouse
[10] = system: NK cells (NK1.1+CD3-); test: NK cell expansion in peripheral blood and spleen, flow cytometry (Example 2); format: in vivo, mice (WT C57BL/6 or B6D2F1/J)
Text: […] PBS; gated on total white blood cells).
In FIG. […] PBS served as a control. Peripheral blood cells were counted using trypan blue and assayed by flow cytometry to examine percentages of NK cells (NK1.1^+CD3^−).

[11] = system: lethally irradiated BALB/c mice; test: Allogeneic transplantation of mobilized grafts into lethally irradiated mice (Example 6); format: in vivo, BALB/c mice (grafts from C57BL/6); details: 8×10^5 mobilized cells per recipient
Method: For allogeneic transplantation, each recipient BALB/c mouse was subjected to a lethal irradiation (delivered in 2 fractions separated by 4 hours using RS 2000 X-Ray Q2 Irradiator) and was then injected with 8×10^5 mobilized RBC depleted peripheral blood cells isolated from C57BL/6 mice. […] Considering the likely graft rejection and GVHD complication in the allogeneic model, a 4-fold higher number of cells (i.e., 8×10^5 donor cells isolated from C57BL/6 mice) were administered intravenously (i.v.) into each BALB/c recipient for allogeneic transplants. The lethally irradiated mice were housed in a sterile environment and baytril antibiotic was provided in the drinking water to prevent infection-caused mortality. After transplantation, mice were monitored daily and the phenotypes of the mice were recorded.
as §2
In FIG. 16, lethally irradiated BALB/c mice were transplanted with grafts from C57BL/6 mice that were mobilized by the indicated regimens. At four months post-transplantation, the surviving mice were sacrificed.

Molecule | proportion of CD8+ T cells in total white blood cells [1] | number of LSK cells in blood compared with PBS-treated mice [2] | autologous transplant patients that respond poorly ([3]; G-CSF or G-CSF plus chemotherapy, varied depending on disease types and age) | normal donors that mobilize stem cells poorly ([3]; in response to G-CSF) | mice survived ([4]; 2.5×10^5 cells mobilized by G-CSF transplanted) | mice survived ([4]; syngeneically infused with 1×10^6 peripheral nucleated cells mobilized by G-CSF) | NK (CD3-NK1.1+) cell percentages [5] | mice alive four months after transplantation [6] | survival rate at day 21 [6] | protection from death [7] | effect on progenitor cells and HSCs ([8]; FLT3L administration for 5 days) | Lin-c-kit+Sca-1+ HSC, percentage among total WBC ([8]; peripheral blood, FLT3L administration of 7 days and 10 days, printed as 0.13% vs. 1.8%, n=3, p<0.01) | Lin-c-kit+Sca-1- progenitor cells, percentage among total WBC ([8]; peripheral blood, FLT3L administration of 7 days and 10 days, printed as 0.47% vs. 1.8%, n=3, p<0.01) | survival rate two months (day 60) after transplantation [9] | NK cells in peripheral blood and spleen ([10]; FLT3L alone for 14 days) | NK cell content compared with the combination of GCSF and Plerixafor ([10]; gated on total white blood cells) | mice surviving to 4 months post-transplantation [11]
c1cc(CN2CCCNCCNCCCNCC2)ccc1CN1CCCNCCNCCCNCC1 [Plerixafor, reference compound] | moderately gave rise to a proportional increase | moderate increase |  |  |  |  |  |  |  |  |  |  |  |  |  |  | 
B1 |  |  | 10-30% | 5-10% | around 17% | about 90% |  |  |  |  |  |  |  |  |  |  | 
B2 | dramatically decreased | significantly more LSK cells |  |  |  |  | significantly increased | approximately 70% | 100% | fully protect mice from death | increased only Lin-c-kit+Sca-1-progenitor cells but not HSCs | 1.8% | 1.8% | 60% | dramatically increased | much higher NK cell content | 66%
